In paper PMC10786891, “Massively parallel profiling of RNA-targeting CRISPR-Cas13d” one finds Kd data, which are given here for 33 molecules.

Numbering of substitutions follows the chain as printed. Names and notes keep the numbering of the source.

The chains are these.
T1: EsCas13d, nuclease-dead (Eubacterium siraeum, UniProt B0MS50, R295A;H300A;R849A;H854A)
T1 sequence: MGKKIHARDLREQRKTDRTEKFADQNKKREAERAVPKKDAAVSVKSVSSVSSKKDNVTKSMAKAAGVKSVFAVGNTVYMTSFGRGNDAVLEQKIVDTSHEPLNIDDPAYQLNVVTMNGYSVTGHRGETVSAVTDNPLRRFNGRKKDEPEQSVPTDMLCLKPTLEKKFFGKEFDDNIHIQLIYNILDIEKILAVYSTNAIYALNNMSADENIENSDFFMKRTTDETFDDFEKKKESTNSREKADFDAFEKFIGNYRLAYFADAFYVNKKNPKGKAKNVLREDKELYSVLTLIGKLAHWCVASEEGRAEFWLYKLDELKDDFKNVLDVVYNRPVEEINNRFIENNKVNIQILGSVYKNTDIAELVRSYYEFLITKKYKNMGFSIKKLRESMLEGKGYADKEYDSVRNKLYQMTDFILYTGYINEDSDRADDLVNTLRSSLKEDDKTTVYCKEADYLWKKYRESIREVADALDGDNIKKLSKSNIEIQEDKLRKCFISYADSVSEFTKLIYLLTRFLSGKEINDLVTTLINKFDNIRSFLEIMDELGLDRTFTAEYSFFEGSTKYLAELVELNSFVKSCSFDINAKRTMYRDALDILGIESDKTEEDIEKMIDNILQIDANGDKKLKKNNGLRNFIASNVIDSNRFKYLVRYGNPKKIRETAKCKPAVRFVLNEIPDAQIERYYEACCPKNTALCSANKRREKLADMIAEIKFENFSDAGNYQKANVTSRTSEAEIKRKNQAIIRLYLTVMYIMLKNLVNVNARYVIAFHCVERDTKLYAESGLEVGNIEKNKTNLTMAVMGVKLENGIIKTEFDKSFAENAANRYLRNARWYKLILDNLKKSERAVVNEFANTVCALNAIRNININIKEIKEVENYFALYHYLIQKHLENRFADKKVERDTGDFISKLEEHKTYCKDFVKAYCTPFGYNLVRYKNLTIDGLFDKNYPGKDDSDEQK

B1: target 1 A14G,G17U (mixed)
RNA 1: CACCCGUGCAAAAAUGCAGGGGUCUAAAACUGAGCGGAUAACCUCUCUAUGG
RNA 2: GGGAAUGGAUCCACAUCUACGAAUUCGUACCAUAUAGGGGUUAUCCGCUCACCGAGAUCGGAAGAGCACACGU
B2: target 1 insG 3' of 20,insA 3' of 7 (mixed)
RNA 1: B1 RNA 1
RNA 2: GGGAAUGGAUCCACAUCUACGAAUUCGUACCAGUAGAGAGGUUAUCACGCUCACCGAGAUCGGAAGAGCACACGU
B3: target 1 A9G (mixed)
RNA 1: B1 RNA 1
RNA 2: B1 RNA 2 with U35G, G38A, A43G
B4: target 1 C6U,U19A (mixed)
RNA 1: B1 RNA 1
RNA 2: B1 RNA 2 with U33A, U35G, G38A, C46U
B5: target 1 insC 3' of 8,insG 3' of 2 (mixed)
RNA 1: B1 RNA 1
RNA 2: GGGAAUGGAUCCACAUCUACGAAUUCGUACCAUAGAGAGGUUAUCCCGCUCGACCGAGAUCGGAAGAGCACACGU
B6: target 1 insC 3' of 11,insC 3' of 3 (mixed)
RNA 1: B1 RNA 1
RNA 2: B5 RNA 2 with U42C, A43U, U44A, C45U, G52C
B7: target 1 insU 3' of 12 (mixed)
RNA 1: B1 RNA 1
RNA 2: GGGAAUGGAUCCACAUCUACGAAUUCGUACCAUAGAGAGGUUUAUCCGCUCACCGAGAUCGGAAGAGCACACGU
B8: target 1 insG 3' of 6,insC 3' of 3 (mixed)
RNA 1: B1 RNA 1
RNA 2: B5 RNA 2 with C47G, G52C
B9: target 1 G13A,G17U (mixed)
RNA 1: B1 RNA 1
RNA 2: B1 RNA 2 with G38A, G39A
B10: target 1 insU 3' of 12,insG 3' of 4 (mixed)
RNA 1: B1 RNA 1
RNA 2: B5 RNA 2 with A43U, U44A, C45U, U50G, C51U, G52C
B11: target 1 U3A,U8A (mixed)
RNA 1: B1 RNA 1
RNA 2: B1 RNA 2 with U35G, G38A, U44A, U49A
B12: target 1 insG 3' of 14,insG 3' of 11 (mixed)
RNA 1: B1 RNA 1
RNA 2: B5 RNA 2 with U41G, A43G, C45A, C46U, G48C, C49G, U50C, C51U, G52C
B13: target 1 C2G,C4A (mixed)
RNA 1: B1 RNA 1
RNA 2: B1 RNA 2 with U35G, G38A, C48A, C50G
B14: target 1 insC 3' of 14,insA 3' of 2 (mixed)
RNA 1: B1 RNA 1
RNA 2: B5 RNA 2 with G39C, U41G, A43U, U44A, C45U, G52A
B15: target 1 insG 3' of 18,insU 3' of 12 (mixed)
RNA 1: B1 RNA 1
RNA 2: B2 RNA 2 with G33U, U34A, A35G, A44U, U45A, C46U, A47C
B16: target 1 C4A,G13U (mixed)
RNA 1: B1 RNA 1
RNA 2: B1 RNA 2 with U35G, G38A, G39U, C48A
B17: target 1 insU 3' of 9,insG 3' of 9 (mixed)
RNA 1: B1 RNA 1
RNA 2: B5 RNA 2 with C45G, C46U, G48C, C49G, U50C, C51U, G52C
B18: target 1 insA 3' of 13,insC 3' of 11 (mixed)
RNA 1: B1 RNA 1
RNA 2: GGGAAUGGAUCCACAUCUACGAAUUCGUACCAUAGAGAGAGUCUAUCCGCUCACCGAGAUCGGAAGAGCACACGU
B19: target 1 U10A,A16U (mixed)
RNA 1: B1 RNA 1
RNA 2: B1 RNA 2 with U35G, A36U, G38A, U42A
B20: target 1 insA 3' of 12,insG 3' of 8 (mixed)
RNA 1: B1 RNA 1
RNA 2: B18 RNA 2 with A40G, G41A, C43U, U44A, A45U, U46G
B21: target 1 insA 3' of 19,insG 3' of 18 (mixed)
RNA 1: B1 RNA 1
RNA 2: B18 RNA 2 with G35A, A36G, U42G, C43U
B22: target 1 insC 3' of 14,insC 3' of 5 (mixed)
RNA 1: B1 RNA 1
RNA 2: B18 RNA 2 with G39C, A40G, C43U, U44A, A45U, U46C, C48G, G49C
B23: target 1 insA 3' of 21,insG 3' of 19 (mixed)
RNA 1: B1 RNA 1
RNA 2: B18 RNA 2 with U33A, A34U, U42G, C43U
B24: target 1 C6U,G17U (mixed)
RNA 1: B1 RNA 1
RNA 2: B1 RNA 2 with G38A, C46U
B25: target 1 C7U,U11G (mixed)
RNA 1: B1 RNA 1
RNA 2: B1 RNA 2 with U35G, G38A, U41G, C45U
B26: target 1 insA 3' of 15,insU 3' of 7 (mixed)
RNA 1: B1 RNA 1
RNA 2: B2 RNA 2 with G33U, U34A, A35G, G36A, A37G, G38A, A47U
B27: target 1 del9,del15 (mixed)
RNA 1: B1 RNA 1
RNA 2: GGGAAUGGAUCCACAUCUACGAAUUCGUACCAUAGAAGGUUUCCGCUCACCGAGAUCGGAAGAGCACACGU
B28: target 1 insC 3' of 14,insA 3' of 11 (mixed)
RNA 1: B1 RNA 1
RNA 2: B18 RNA 2 with G39C, A40G, C43A
B29: target 1 insC 3' of 17,insG 3' of 6 (mixed)
RNA 1: B1 RNA 1
RNA 2: B2 RNA 2 with G33U, U34A, A35G, G36C, A47C, C48G
B30: target 1 insC 3' of 20,insC 3' of 1 (mixed)
RNA 1: B1 RNA 1
RNA 2: B2 RNA 2 with G33C, A47C, C48G, G49C, C50U, U51C, C52A, A53C
B31: target 1 insA 3' of 13,insC 3' of 5 (mixed)
RNA 1: B1 RNA 1
RNA 2: B18 RNA 2 with C43U, U44A, A45U, U46C, C48G, G49C
B32: target 1 insC 3' of 18,insU 3' of 6 (mixed)
RNA 1: B1 RNA 1
RNA 2: B2 RNA 2 with G33U, U34A, A35C, A47C, C48U
B33: target 1 C6U,U11C (mixed)
RNA 1: B1 RNA 1
RNA 2: B1 RNA 2 with U35G, G38A, U41C, C46U

This data set deals with T1, EsCas13d, nuclease-dead. Description: crRNA (strand 1, pre-loaded); Mg2+; 40 mM Tris-HCl pH 7.5, 150 mM NaCl, 6 mM MgCl2, 1 mM DTT, 0.1% Tween-20, 0.2 mg/ml BSA; 25 C; 10 min per concentration, then washed. Particulars: tags: His6-TwinStrep-SUMO cleaved; N-terminal SNAP kept (SNAP-Surface 488); label: 3' end held by stalled T7 RNA polymerase.
With B1, the Kd turned out to be 78 ± 15 nM.

Molecule B2 returned a Kd of 26.1 ± 3 nM. The same measure for B3: 13.2 ± 0.4 nM; for B4: 34.9 ± 2.4 nM. For B5, the affinity, expressed as Kd, was 21 ± 1.5 nM. With B6 the figure was 28.9 ± 2.7 nM. With B7 the figure was 7.54 ± 0.28 nM. With B8 the figure was 13.7 ± 0.8 nM.

As for B9, the Kd was 28.6 ± 2.7 nM. With B10 the figure was 4.6 ± 0.17 nM; with B11, 10.6 ± 0.5 nM; with B12, 20.7 ± 0.9 nM. The same measure for B13: 6.94 ± 0.32 nM; for B14: 52 ± 13 nM. As for B15, binding was characterised by a dissociation constant (Kd) of 50 ± 6 nM.

B16 gave a Kd of about 70 nM. The same measure for B17: 13.2 ± 0.5 nM; for B18: 7.8 ± 0.6 nM; for B19: 42 ± 4 nM. The same measure for B20: 32 ± 2.7 nM; for B21: 97 ± 30 nM. With B22 the figure was 75 ± 17 nM; with B23, 51 ± 5 nM; with B24, 22.3 ± 1.5 nM.

Take B25: binding was characterised by a dissociation constant (Kd) of 9.7 ± 0.6 nM.

In turn, B26 yielded a Kd of 13.5 ± 0.9 nM. Consider B27, for which binding was characterised by a dissociation constant (Kd) of 44 ± 6 nM.

Turning to B28, the affinity, expressed as Kd, was 42 ± 5 nM.

For B29, binding was put at a Kd of 43 ± 8 nM. The same measure for B30: 8 ± 0.5 nM; for B31: 3.35 ± 0.18 nM; for B32: 39 ± 4 nM. With B33 the figure was 9.1 ± 0.6 nM.
